Source: paper PMC8517123, “Functional Interaction Between Caveolin 1 and LRRC8-Mediated Volume-Regulated Anion Channel” (Frontiers in Physiology, 2021)

Target: T1, Leucine-rich repeat-containing 8A (human (endogenous in HEK 293), UniProt Q8IWT6 1-810)
T1 construct: LRRC8A, essential subunit of the volume-regulated anion channel (VRAC), endogenous in HEK 293 cells; Endogenous protein in lysate; in cells it is part of heteromeric LRRC8 channels, and other subunits may be present in the precipitate; also called LRRC8A; source: endogenous, HEK 293 lysate (1% Triton X-100)
T1 sequence (looked up): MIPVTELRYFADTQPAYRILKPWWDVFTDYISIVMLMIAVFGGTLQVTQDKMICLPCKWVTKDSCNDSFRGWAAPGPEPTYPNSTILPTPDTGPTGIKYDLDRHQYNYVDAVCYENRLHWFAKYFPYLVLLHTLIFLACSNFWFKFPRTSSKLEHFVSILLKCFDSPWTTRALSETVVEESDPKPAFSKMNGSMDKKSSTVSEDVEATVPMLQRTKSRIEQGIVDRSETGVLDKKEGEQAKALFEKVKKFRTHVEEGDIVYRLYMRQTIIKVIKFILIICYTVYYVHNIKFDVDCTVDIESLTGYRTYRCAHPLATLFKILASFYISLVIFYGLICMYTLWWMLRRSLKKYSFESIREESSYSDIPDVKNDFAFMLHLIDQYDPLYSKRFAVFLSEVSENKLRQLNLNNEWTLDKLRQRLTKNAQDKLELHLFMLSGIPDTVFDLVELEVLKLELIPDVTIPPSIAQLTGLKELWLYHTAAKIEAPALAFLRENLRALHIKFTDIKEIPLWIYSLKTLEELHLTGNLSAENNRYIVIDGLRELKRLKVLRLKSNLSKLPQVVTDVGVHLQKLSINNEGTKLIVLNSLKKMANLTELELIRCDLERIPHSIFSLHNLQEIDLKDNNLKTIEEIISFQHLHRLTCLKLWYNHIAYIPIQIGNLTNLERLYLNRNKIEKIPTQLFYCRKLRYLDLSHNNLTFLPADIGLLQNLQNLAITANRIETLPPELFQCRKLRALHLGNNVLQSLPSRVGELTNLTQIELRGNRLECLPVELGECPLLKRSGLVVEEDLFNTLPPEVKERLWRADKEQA
Assay: co-IP; endogenous proteins; HEK 293 cells exposed to isotonic (300 mOsm/Kg) or hypotonic (255 mOsm/Kg) solution for 7 min at 37°C; lysis in 1% Triton X-100; 100-500 μg protein with 2-4 μg anti-Cav1 or anti-LRRC8A antibody at 4°C overnight, protein A sepharose; western blot
Conditions: partners not purified

B1: Caveolin 1 (natural protein, human (endogenous in HEK 293), UniProt Q03135 1-178, looked up)
chain: MSGGKYVDSEGHLYTVPIREQGNIYKPNNKAMADELSEKQVYDAHTKEIDLVNRDPKHLNDDVVKIDFEDVIAEPEGTHSFDGIWKASFTTFTVTKYWFYRLLSALFGIPMALIWGIYFAILSFLHIWAVVPCIKSFLIEIQCISRVYSIYVHTVCDPLFEAVGKIFSNVRINLQKEI
notes: Caveolin 1, endogenous in HEK 293 cells; also called Cav1; source: endogenous, HEK 293 lysate (1% Triton X-100)
LRRC8A/Cav1 ratio, hypotonic vs. isotonic (densitometry of co-IP): 2.2 ratio
